Target: Streptococcus pyogenes Cas9 (Streptococcus pyogenes, UniProt Q99ZW2)
Experiment: cryo-EM structure

Chain of Streptococcus pyogenes Cas9 (Q99ZW2 whole entry): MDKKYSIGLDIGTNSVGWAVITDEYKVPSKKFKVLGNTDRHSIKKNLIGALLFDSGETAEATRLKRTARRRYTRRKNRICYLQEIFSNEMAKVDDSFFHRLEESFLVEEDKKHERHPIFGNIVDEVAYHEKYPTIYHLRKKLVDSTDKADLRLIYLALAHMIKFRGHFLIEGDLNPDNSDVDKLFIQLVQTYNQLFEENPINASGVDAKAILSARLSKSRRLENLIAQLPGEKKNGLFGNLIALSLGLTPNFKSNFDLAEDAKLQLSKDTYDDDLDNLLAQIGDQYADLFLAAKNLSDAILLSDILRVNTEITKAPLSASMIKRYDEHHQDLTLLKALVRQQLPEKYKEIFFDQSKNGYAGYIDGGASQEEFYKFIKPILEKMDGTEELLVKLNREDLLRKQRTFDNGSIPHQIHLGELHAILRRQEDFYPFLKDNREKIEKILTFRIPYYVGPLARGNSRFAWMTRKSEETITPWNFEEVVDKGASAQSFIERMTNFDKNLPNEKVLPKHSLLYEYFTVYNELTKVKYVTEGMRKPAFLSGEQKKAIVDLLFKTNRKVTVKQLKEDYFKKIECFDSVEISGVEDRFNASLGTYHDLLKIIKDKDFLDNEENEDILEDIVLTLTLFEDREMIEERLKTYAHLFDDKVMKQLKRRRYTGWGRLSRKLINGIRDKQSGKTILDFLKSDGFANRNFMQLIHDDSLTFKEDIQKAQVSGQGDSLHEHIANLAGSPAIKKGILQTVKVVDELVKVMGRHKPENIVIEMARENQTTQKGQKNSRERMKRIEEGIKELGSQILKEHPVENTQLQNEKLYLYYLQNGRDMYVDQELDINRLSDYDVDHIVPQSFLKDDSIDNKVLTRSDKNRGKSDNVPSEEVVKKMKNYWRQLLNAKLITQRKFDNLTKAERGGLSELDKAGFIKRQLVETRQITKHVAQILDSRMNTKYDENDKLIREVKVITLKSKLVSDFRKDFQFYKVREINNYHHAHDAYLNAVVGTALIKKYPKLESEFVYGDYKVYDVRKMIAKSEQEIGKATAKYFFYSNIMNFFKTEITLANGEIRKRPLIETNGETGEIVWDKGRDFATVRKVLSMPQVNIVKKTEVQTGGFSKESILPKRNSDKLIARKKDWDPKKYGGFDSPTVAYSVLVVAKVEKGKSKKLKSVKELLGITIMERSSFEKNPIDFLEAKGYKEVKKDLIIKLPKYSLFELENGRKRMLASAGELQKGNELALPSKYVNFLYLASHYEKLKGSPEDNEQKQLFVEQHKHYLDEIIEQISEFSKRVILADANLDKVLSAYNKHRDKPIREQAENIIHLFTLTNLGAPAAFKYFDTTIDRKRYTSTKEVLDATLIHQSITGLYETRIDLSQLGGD

B1: anti-CRISPR protein AcrIIA4 (natural protein)
chain: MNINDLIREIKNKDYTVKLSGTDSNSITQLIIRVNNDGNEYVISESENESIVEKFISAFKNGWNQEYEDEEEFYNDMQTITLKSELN
- stoichiometry N: 1
